B1: Thioredoxin-dependent peroxide reductase, mitochondrial (Homo sapiens), P30048 (parent)
chain: MAAAVGRLLRASVARHVSAIPWGISATAALRPAACGRTSLTNLLCSGSSQAKLFSTSSSCHAPAVTQHAPYFKGTAVVNGEFKDLSLDDFKGKYLVLFFYPLDFTFVCPTEIVAFSDKANEFHDVNCEVVAVSVDSHFSHLAWINTPRKNGGLGHMNIALLSDLTKQISRDYGVLLEGSGLALRGLFIIDPNGVIKHLSVNDLPVGRSVEETLRLVKAFQYVETHGEVCPANWTPDSPTIKPSPAASKEYFQKVNQ

Variants of: B1
Conditions: with lrrk2_human LRRK2, Q5S007
Sequence of lrrk2_human LRRK2, Q5S007 (Q5S007 whole entry): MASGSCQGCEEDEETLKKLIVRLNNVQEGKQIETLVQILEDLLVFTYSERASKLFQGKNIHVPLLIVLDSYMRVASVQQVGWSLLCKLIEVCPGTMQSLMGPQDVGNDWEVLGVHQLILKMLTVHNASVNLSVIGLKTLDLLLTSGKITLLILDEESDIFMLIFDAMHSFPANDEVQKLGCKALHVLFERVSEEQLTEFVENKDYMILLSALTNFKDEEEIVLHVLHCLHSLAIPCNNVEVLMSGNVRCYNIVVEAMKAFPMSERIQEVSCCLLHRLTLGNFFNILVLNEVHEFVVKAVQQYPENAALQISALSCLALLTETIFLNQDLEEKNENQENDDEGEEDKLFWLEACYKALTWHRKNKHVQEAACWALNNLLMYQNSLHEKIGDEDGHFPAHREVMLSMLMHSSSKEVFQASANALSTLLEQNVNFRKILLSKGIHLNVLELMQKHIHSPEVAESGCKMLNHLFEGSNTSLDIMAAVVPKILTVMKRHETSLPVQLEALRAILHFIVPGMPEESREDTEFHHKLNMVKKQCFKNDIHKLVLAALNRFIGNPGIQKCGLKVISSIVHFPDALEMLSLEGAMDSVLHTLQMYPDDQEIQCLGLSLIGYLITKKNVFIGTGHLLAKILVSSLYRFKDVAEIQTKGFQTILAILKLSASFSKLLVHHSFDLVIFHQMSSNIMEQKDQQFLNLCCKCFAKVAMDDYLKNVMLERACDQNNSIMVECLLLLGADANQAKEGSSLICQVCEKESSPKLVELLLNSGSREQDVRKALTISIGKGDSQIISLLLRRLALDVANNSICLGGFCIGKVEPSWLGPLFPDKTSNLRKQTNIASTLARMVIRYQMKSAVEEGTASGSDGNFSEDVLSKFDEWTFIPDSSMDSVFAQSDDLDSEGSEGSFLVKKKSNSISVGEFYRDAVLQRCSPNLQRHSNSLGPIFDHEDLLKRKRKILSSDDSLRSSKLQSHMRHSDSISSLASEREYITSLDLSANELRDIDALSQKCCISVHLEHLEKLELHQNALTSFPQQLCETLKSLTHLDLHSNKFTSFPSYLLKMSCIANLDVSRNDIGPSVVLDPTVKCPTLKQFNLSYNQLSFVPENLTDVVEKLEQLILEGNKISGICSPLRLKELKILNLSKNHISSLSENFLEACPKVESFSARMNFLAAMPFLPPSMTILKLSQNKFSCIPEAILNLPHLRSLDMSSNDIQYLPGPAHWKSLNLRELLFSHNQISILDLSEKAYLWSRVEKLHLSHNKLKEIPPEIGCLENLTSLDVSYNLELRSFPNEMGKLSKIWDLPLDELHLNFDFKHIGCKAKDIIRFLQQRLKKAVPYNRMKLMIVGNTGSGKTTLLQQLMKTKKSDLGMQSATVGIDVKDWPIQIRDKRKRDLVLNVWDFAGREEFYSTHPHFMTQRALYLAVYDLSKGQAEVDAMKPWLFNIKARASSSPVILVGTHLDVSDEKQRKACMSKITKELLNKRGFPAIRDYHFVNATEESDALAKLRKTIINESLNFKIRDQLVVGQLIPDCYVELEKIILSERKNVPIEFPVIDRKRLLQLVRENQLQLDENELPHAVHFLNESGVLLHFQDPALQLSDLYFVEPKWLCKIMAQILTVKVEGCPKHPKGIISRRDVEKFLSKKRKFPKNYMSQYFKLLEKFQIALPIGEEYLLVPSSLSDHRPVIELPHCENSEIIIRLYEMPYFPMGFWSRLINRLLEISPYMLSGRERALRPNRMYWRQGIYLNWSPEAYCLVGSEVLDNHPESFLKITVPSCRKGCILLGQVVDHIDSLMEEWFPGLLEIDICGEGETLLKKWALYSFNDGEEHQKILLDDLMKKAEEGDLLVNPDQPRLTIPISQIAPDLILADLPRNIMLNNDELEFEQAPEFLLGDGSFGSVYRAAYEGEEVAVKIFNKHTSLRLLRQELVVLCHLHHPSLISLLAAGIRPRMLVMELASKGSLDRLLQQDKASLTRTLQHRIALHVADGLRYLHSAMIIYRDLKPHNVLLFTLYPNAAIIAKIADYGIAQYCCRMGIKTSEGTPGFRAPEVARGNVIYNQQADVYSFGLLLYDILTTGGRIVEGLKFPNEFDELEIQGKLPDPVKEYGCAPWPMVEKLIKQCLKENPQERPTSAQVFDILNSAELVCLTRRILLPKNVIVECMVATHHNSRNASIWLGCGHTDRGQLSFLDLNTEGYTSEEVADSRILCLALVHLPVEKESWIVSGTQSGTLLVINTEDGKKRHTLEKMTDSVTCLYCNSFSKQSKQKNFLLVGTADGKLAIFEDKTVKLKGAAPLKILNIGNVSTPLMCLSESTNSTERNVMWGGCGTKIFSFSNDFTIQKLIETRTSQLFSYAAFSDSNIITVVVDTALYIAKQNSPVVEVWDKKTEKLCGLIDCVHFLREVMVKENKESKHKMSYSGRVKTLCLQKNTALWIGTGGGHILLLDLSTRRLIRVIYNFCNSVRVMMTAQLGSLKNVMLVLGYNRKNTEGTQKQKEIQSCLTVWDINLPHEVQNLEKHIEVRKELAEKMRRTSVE

| effect of a mutation on the interaction | Variant |
| --- | --- |
| disrupting interaction | T146A |
